Experimental data as given in patent US6207419A, “Thrombin inhibitory agents and methods of using same” (The University of North Carolina at Chapel Hill, priority 1999, dated 2001).

Assays:
[1] = Heparin-Sepharose affinity chromatography; format: binding; details: NaCl gradient, 20 mM Hepes pH 7.4
Description: 100 μL of each fraction was aliquoted onto a 96-well microtiter plate and ELISA was performed. The peak elution ionic strength was determined by plotting 405 nm color development and NaCl concentration against the fraction number. All samples were run at least in triplicate using two or more protein preparations. Recombinant ATIII samples were run similarly to the HCII samples, except the elution gradient was run from 50 mM to 2 M NaCl.

[2] = biological target: T1, plasma purified α-thrombin (Homo sapiens, UniProt P00734); assay: Thrombin inhibition in the presence of glycosaminoglycans (heparin or dermatan sulfate); format: biochemical; details: for maximal rate of thrombin inhibition in the presence of heparin: heparin at optimal concentration
T1 construct: Human α-thrombin, HCII, and ATIII were purified in our laboratory from plasma; from tissue; host or cells: human plasma (purified in the authors' laboratory)
Description: Protease inhibition rates were determined as described previously (Rogers, S. J., Pratt, C. W., Whinna, H. C., and Church, F. C. (1992) J. Biol. Chem. 267(6), 3613-3617; Whinna, H. C., Choi, H. U., Rosenberg, L. C., and Church, F. C. (1993) J. Biol. Chem. 268, 3920-3924; Ciaccia, A. V., Cunningham, E. L., and Church, F. C. (1995) Protein Express. Purific. 6, 806-812; Ciaccia, A. V., Willemze, A. J., and Church, F. C. (1997) J. Biol. Chem. 272(2), 888-893). All assays were performed at room temperature in 96-well microtiter plates previously coated with 2 mg/mL BSA.
In the presence of glycosaminoglycans, 5 nM rHCII (wt, CHis6, CHis5 Pro, L444R, or L444R-CHis6) was incubated with 0.5 nM thrombin and 0-1 mg/mL heparin or 0-4 mg/mL dermatan sulfate or 10 nM rATIII (wt or CHis6) was incubated with 1 nM thrombin or factor Xa and 0-1 mg/mL heparin in the presence of 2 mg/mL BSA in HNPN, pH 7.4.
Residual thrombin activity was measured with 150 μM GlyProArg-NA and 1 mg/mL pB in the absence of glycosaminoglycan, 2 mg/mL pB in the presence of heparin and 4 mg/mL in the presence of dermatan sulfate. Residual factor Xa activity was measured with 500 μM Spectrozyme FXa and 2mg/mL pB in the presence or absence of glycosaminoglycan. Residual chymotrypsin activity was measured with 150 μM AlaAlaProPhe-NA and residual trypsin activity was measured with 150 μM GlyProArg-NA. Substrate cleavage was measured by color development at […] on a Vmax Kinetic Microplate Reader (Molecular Devices).
Assays were performed at least in triplicate on two or more recombinant protein preparations. All inhibition studies were measured under pseudo-first order conditions where inhibitor [I] is at least ten-fold higher than enzyme (protease) [E], and second-order rate constants were calculated as described previously (Ciaccia, A. V., Cunningham, E. L., and Church, F. C. (1995) Protein Express. Purific. 6, 806-812; Ciaccia, A. V., Willemze, A. J., and Church, F. C. (1997) J. Biol. Chem. 272(2), 888-893).

thrombin = assay: Thrombin inhibition in the absence of glycosaminoglycan; format: biochemical, human
Description: All assays were performed at room temperature in 96-well microtiter plates previously coated with 2 mg/mL BSA.
(§1) Residual thrombin activity was measured with 150 μM GlyProArg-NA and 1 mg/mL pB in the absence of glycosaminoglycan, 2 mg/mL pB in the presence of heparin and 4 mg/mL in the presence of dermatan sulfate. Residual factor Xa activity was measured with 500 μM Spectrozyme FXa and 2mg/mL pB in the presence or absence of glycosaminoglycan. Residual chymotrypsin activity was measured with 150 μM AlaAlaProPhe-NA and residual trypsin activity was measured with 150 μM GlyProArg-NA.
(§2) Assays were performed at least in triplicate on two or more recombinant protein preparations.

α-thrombin = biological target: T2, α-thrombin (Homo sapiens, UniProt P00734); assay: Effect of hirugen on thrombin inhibition in the absence of glycosaminoglycan; format: biochemical
T2 construct: Human α-thrombin, HCII, and ATIII were purified in our laboratory from plasma; from tissue; host or cells: human plasma (purified in the authors' laboratory)
Description: as §1, §2

[3] = test system: plasma-purified α-thrombin; assay: Thrombin inhibition with heparin before and after carboxypeptidase A digest; format: biochemical, human; details: 2 hr, room temperature, FIG. 3
Description: Forty ng of CPA was combined with approximately 1 μg of recombinant protein and incubated at room temperature. Following a 2-hr incubation at room temperature, 2 mM EDTA was added to quench CPA activity. Controls were run in which EDTA was added to the reaction prior to the addition of CPA. CPA digested proteins were then assayed according to previously mentioned procedures.

B1: rHCII-L444R-CHis6: HCII mutant that contains both L444R and a hexahistidine carboxyl tag (protein, UniProt P05546 20-499, looked up, variant L444R)
Heparin cofactor 2: GSKGPLDQLEKGGETAQSADPQWEQLNNKNLSMPLLPADFHKENTVTNDWIPEGEEDDDYLDLEKIFSEDDDYIDIVDSLSVSPTDSDVSAGNILQLFHGKSRIQRLNILNAKFAFNLYRVLKDQVNTFDNIFIAPVGISTAMGMISLGLKGETHEQVHSILHFKDFVNASSKYEITTIHNLFRKLTHRLFRRNFGYTLRSVNDLYIQKQFPILLDFKTKVREYYFAEAQIADFSDPAFISKTNNHIMKLTKGLIKDALENIDPATQMMILNCIYFKGSWVNKFPVEMTHNHNFRLNEREVVKVSMMQTKGNFLAANDQELDCDILQLEYVGGISMLIVVPHKMSGMKTLEAQLTPRVVERWQKSMTNRTREVLLPKFKLEKNYNLVESLKLMGIRMLFDKNGNMAGISDQRIAIDLFKHQGTITVNEEGTQATTVTTVGFMPRSTQVRFTVDRPFLFLIYEHRTSCLLFMGRVANPSRS
modifications: C-terminal His6 tag
Heparin-Sepharose [NaCl], peak elution concentration [1]: 600 mM
dermatan sulfate concentration at maximal rate of thrombin inhibition ([2]; dermatan sulfate): ~ 200 μg/mL
maximal rate of thrombin inhibition in the presence of dermatan sulfate ([2]; dermatan sulfate at optimal concentration): 8.81±0.20×10^8 M^-1 min^-1
heparin concentration at maximal rate of thrombin inhibition [2]: ~ 20 μg/mL
maximal rate of thrombin inhibition in the presence of heparin [2]: 2.47±0.35×10^8 M^-1 min^-1
rate of thrombin inhibition in the absence of glycosaminoglycan (thrombin): 1.59±0.26×10^6 M^-1 min^-1
rate of thrombin inhibition relative to rHCII-CHis6 (thrombin): ~ 100 fold
rate of thrombin inhibition compared in words with the untagged serpin (thrombin; comparator rHCII-L444R or wt-rATIII as in sentence): not significantly different
effect of hirugen on thrombin inhibition, in words (α-thrombin; hirugen 20 μM, absence of glycosaminoglycan): less of an effect
rate constant of inhibition (k2) in the absence of peptide (α-thrombin; no hirugen, no control peptide, FIG. 5): 35300 M⁻¹ s⁻¹

B2: rHCII-CHis5 Pro: Recombinant HCII mutant with a His5 Pro carboxyl-terminal tag; SEQ ID NO:7 (protein)
chain: MKHSLNALLIFLIITSAWGGSKGPLDQLEKGGETAQSADPQWEQLNNKNLSMPLLPADFHKENTVTNDWIPEGEEDDDYLDLEKIFSEDDDYIDIVDSLSVSPTDSDVSAGNILQLFHGKSRIQRLNILNAKFAFNLYRVLKDQVNTFDNIFIAPVGISTAMGMISLGLKGETHEQVHSILHFKDFVNASSKYEITTIHNLFRKLTHRLFRRNFGYTLRSVNDLYIQKQFPILLDFRTKVREYYFAEAQIADFSDPAFISKTNNHIMKLTKGLIKDALENIDPATQMMILNCIYFKGSWVNKFPVEMTHNHNFRLNEREVVKVSMMQTKGNFLAANDQELDCDILQLEYVGGISMLIVVPHKMSGMKTLEAQLTPRVVERWQKSMTNRTREVLLPKFKLEKNYNLVESLKLMGIRMLFDKNGNMAGISDQRIAIDLFKHQGTITVNEEGTQATTVTTVGFMPLSTQVRFTVDRPFLFLIYEHRTSCLLFMGRVANPSRSHHHHHP
modifications: His5 Pro C-terminal tag
heparin concentration at maximal rate of thrombin inhibition [2]: 10 µg/mL
maximal rate of thrombin inhibition in the presence of heparin [2]: 1.87±0.37×10^9 M^-1 min^-1
change of heparin-dependent thrombin inhibition after CPA digest, in words [3]: does not change appreciably
rate of thrombin inhibition in the absence of glycosaminoglycan (thrombin): 32000 M⁻¹ min⁻¹
rate of thrombin inhibition relative to wt-rHCII (thrombin): ~ 2 fold
